Experimental data: US20140087995A1 (published 2014)
Where two headings read alike, the source gives them in different places.

T1: human amylin 3(a) receptor (human calcitonin receptor plus RAMP-3) (human, UniProt P30988 25-474; O60896 24-148, limits assumed)
T1 construct: whole, on cells; Whole cells in the luciferase assay (Assay II a); also called hAmylin-R; human amylin receptor
T1 sequence (looked up) 1: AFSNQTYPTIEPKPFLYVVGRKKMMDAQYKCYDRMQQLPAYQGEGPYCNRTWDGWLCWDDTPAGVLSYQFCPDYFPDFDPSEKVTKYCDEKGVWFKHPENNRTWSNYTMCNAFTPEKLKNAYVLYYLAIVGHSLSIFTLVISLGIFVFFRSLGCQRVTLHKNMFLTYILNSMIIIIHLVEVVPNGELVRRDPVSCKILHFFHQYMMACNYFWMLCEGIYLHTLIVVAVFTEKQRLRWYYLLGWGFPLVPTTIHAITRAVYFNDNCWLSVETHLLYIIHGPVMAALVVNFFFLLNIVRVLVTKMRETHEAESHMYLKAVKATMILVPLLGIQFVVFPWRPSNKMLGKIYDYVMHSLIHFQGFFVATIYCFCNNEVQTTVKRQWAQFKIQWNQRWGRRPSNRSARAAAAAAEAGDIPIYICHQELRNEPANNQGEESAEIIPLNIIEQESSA
T1 sequence (looked up) 2: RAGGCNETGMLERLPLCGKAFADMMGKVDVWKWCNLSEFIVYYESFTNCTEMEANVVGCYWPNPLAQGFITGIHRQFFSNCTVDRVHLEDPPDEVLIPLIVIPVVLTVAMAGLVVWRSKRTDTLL

T2: human calcitonin receptor (human, UniProt P30988 25-474)
T2 sequence (looked up): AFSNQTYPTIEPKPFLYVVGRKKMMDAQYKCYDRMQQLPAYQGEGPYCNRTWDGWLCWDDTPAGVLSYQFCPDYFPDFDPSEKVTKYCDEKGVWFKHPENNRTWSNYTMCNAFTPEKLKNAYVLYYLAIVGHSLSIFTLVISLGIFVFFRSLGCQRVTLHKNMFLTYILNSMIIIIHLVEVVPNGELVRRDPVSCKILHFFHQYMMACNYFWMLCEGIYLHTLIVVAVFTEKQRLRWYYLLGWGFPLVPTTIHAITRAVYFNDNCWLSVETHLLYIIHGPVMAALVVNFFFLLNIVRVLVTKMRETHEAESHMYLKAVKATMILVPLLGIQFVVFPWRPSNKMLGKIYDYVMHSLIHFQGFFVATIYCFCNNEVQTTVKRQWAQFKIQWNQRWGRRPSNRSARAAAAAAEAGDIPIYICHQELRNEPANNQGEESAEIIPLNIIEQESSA

T3: human calcitonin receptor (human, UniProt P30988 25-474)
T3 sequence (looked up): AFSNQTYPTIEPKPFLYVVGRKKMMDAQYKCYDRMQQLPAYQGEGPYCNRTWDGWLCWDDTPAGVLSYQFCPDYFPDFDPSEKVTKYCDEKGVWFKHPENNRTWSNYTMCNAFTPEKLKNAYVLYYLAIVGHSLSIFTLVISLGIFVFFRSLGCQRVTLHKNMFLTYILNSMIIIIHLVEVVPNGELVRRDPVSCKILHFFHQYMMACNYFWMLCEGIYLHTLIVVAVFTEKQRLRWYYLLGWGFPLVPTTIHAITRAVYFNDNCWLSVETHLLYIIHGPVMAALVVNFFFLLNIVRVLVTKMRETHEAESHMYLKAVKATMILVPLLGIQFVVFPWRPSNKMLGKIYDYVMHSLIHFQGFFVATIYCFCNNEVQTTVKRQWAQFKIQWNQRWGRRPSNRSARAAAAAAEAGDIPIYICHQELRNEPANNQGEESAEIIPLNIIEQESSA


Assays:
[1] = target: T1, human amylin 3(a) receptor (human …); assay: SPA competition binding, displacement of 125I-rat amylin from membranes of Amylin 3(a)/CRE-luc BHK cells (Assay V)
In short: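 Cell membranes were prepared by homogenisation in Na-HEPES/EDTA buffer, pH 7.4, and stored at −80° C. They were then coupled to SPA beads at 35 ng/μL final and exposed to compounds in assay buffer containing CaCl2, MgCl₂, OA and Tween20. After 120 min at 25° C, plates were counted and IC₅₀ derived.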

[2] = target: T1, human amylin 3(a) receptor (human …); assay: cell-based or functional assay
[3] = target: T2, human calcitonin receptor; assay: cell-based or functional assay
[4] = target: T3, human calcitonin receptor; assay: cell-based or functional assay; remark: listed apart in the source

Binder | hCTR funct. EC50 [4] [nM] | other results
KCNTATCATQRLAEFLRHSSPNFGAIPSSTNVGSNTY (C20 diacid-gGlu-2xOEG on the alpha amino group of the N-terminal residue (position 1); disulfide bridge Cys2-Cys7; C-terminal amide, also called compound 19) |  | IC50 [1]: 0.556 nM; Ratio hCT/hAmylin funct. [2]: 17.4; hAmylin-R funct. EC50 [2]: 0.307 nM; hCTR funct. EC50 [3]: 5.32 nM
KCNTATCATQRLANFLRHSSPNFGAIPSSTNVGSNTY (alpha-amino group of N-terminal Lys1 acylated with C20 diacid via gGlu-2xOEG linker; disulfide Cys2-Cys7; C-terminal amide, h-amylin derivative; disulfide bridge and C-terminal amide as told for human amylin; also called compound 24) | 10 | 
KCNTATCATQRLANFLRHSSPNFGAIPSSTNVGRNTY (alpha-amino group of N-terminal Lys1 acylated with C20 diacid via gGlu linker; disulfide Cys2-Cys7; C-terminal amide, h-amylin derivative; disulfide bridge and C-terminal amide as told for human amylin; also called compound 39) [N^α1-[(4S)-4-carboxy-4-(19-carboxynonadecanoylamino)butanoyl]-[Arg17,Pro21,Pro27,Arg34]-h-amylin] | 2.52 | 
KCNTATCATQRLANFLRHSSPNFGAIPSSTNVGSETY (alpha-amino group of N-terminal Lys1 acylated with C20 diacid via gGlu linker; disulfide Cys2-Cys7; C-terminal amide, h-amylin derivative; disulfide bridge and C-terminal amide as told for human amylin; also called compound 23) [N^α1-[(4S)-4-carboxy-4-(19-carboxynonadecanoylamino)butanoyl]-[Arg17,Pro21,Pro27,Glu35]-h-amylin] | 3.02 | 

Further lines, with some results ahead:

hCTR funct. EC50 [4] [nM] | Binder | other results
2.62 | KCNTATCATQRLANFLRHSSPNFGAIPSSTNVGSKTY (alpha-amino group of N-terminal Lys1 acylated with C20 diacid via gGlu linker; disulfide Cys2-Cys7; C-terminal amide, h-amylin derivative; disulfide bridge and C-terminal amide as told for human amylin; also called compound 34) [N^α1-[(4S)-4-carboxy-4-(19-carboxynonadecanoylamino)butanoyl]-[Arg17,Pro21,Pro27,Lys35]-h-amylin] | 
2.68 | KCNTATCATQRLANFLRHSSPNFGAIPSSTNVGHNTY (alpha-amino group of N-terminal Lys1 acylated with C20 diacid via gGlu linker; disulfide Cys2-Cys7; C-terminal amide, h-amylin derivative; disulfide bridge and C-terminal amide as told for human amylin; also called compound 40) [N^α1-[(4S)-4-carboxy-4-(19-carboxynonadecanoylamino)butanoyl]-[Arg17,Pro21,Pro27,His34]-h-amylin] | 
